T1: FcγRIIa H (human, UniProt P12318 34-217)
T1 construct: extracellular domain; also called FcγRIIa type H; 2aH
T1 sequence (looked up): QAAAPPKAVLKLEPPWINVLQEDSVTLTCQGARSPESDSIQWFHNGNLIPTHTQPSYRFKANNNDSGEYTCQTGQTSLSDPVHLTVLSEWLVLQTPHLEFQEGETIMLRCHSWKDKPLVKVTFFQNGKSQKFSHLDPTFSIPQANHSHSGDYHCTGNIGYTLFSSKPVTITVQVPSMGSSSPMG

T2: FcγRIIb (human, UniProt P31994 43-217)
T2 construct: extracellular domain; also called 2b
T2 sequence (looked up): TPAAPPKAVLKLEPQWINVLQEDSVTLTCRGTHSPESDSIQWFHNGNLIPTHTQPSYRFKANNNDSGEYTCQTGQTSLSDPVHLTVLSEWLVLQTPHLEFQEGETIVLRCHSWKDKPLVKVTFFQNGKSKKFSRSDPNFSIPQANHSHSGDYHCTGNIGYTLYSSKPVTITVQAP

B1: GpH7-A5/GpH7-B3 variant S267_01G/GpL16-k0 (antibody, human IgG1, kappa)
heavy 1: not shown
heavy 2: not shown
light: DIVMTQSPLSLPVTPGEPASISCQASESLVHSNRNTYLHWYLQKPGQSPQLLIYKVSNRFSGVPDRFSGSGSGTDFTLKISRVEAEDVGVYYCSQNTHVPPTFGQGTKVEIERTVAAPSVFIFPPSDEQLKSGTASVVCLLNNFYPREAKVQWKVDNALQSGNSQESVTEQDSKDSTYSLSSTLTLSKADYEKHKVYACEVTHQGLSSPVTKSFNRGEC
notes: heterodimerized IgG1, mutation in one H chain only; also called He Ab
B2: GpH7-A5/GpH7-B3 variant S267_03V/GpL16-k0 (antibody, human IgG1, kappa)
heavy 1: not shown
heavy 2: not shown
light: B1 light
notes: as for B1
B3: GpH7-A5/GpH7-B3 variant H268_01G/GpL16-k0 (antibody, human IgG1, kappa)
heavy 1: not shown
heavy 2: not shown
light: B1 light
notes: as for B1
B4: GpH7-A5/GpH7-B3 variant H268_10E/GpL16-k0 (antibody, human IgG1, kappa)
heavy 1: not shown
heavy 2: not shown
light: B1 light
notes: as for B1
B5: GpH7-A5/GpH7-B3 variant S267_09D/GpL16-k0 (antibody, human IgG1, kappa)
heavy 1: not shown
heavy 2: not shown
light: B1 light
notes: as for B1
B6: GpH7-A5/GpH7-B3 variant H268_02A/GpL16-k0 (antibody, human IgG1, kappa)
heavy 1: not shown
heavy 2: not shown
light: B1 light
notes: as for B1
B7: GpH7-A5/GpH7-B3 variant S267_04F/GpL16-k0 (antibody, human IgG1, kappa)
heavy 1: not shown
heavy 2: not shown
light: B1 light
notes: as for B1
B8: GpH7-A5/GpH7-B3 variant H268_05P/GpL16-k0 (antibody, human IgG1, kappa)
heavy 1: not shown
heavy 2: not shown
light: B1 light
notes: as for B1
B9: GpH7-A5/GpH7-B3 variant K326_04F/GpL16-k0 (antibody, human IgG1, kappa)
heavy 1: not shown
heavy 2: not shown
light: B1 light
notes: as for B1
B10: GpH7-A5/GpH7-B3 variant S267_02A/GpL16-k0 (antibody, human IgG1, kappa)
heavy 1: not shown
heavy 2: not shown
light: B1 light
notes: as for B1
B11: GpH7-A5/GpH7-B3 variant S267_05P/GpL16-k0 (antibody, human IgG1, kappa)
heavy 1: not shown
heavy 2: not shown
light: B1 light
notes: as for B1
B12: GpH7-A5/GpH7-B3 variant S267_08L/GpL16-k0 (antibody, human IgG1, kappa)
heavy 1: not shown
heavy 2: not shown
light: B1 light
notes: as for B1
B13: GpH7-A5/GpH7-B3 variant S267_07I/GpL16-k0 (antibody, human IgG1, kappa)
heavy 1: not shown
heavy 2: not shown
light: B1 light
notes: as for B1
B14: GpH7-A5/GpH7-B3 variant P271_09D/GpL16-k0 (antibody, human IgG1, kappa)
heavy 1: not shown
heavy 2: not shown
light: B1 light
notes: as for B1
B15: GpH7-A5/GpH7-B3 variant K326_03V/GpL16-k0 (antibody, human IgG1, kappa)
heavy 1: not shown
heavy 2: not shown
light: B1 light
notes: as for B1
B16: GpH7-A5/GpH7-B3 variant H268_09D/GpL16-k0 (antibody, human IgG1, kappa)
heavy 1: not shown
heavy 2: not shown
light: B1 light
notes: as for B1
B17: GpH7-A5/GpH7-B3 variant K326_05P/GpL16-k0 (antibody, human IgG1, kappa)
heavy 1: not shown
heavy 2: not shown
light: B1 light
notes: as for B1

The binders below were run against T1, FcγRIIa H (assay: SPR; He/Con_2aH divided by He/Con_2b (FcγRIIb)).
Method: The heterodimerized antibodies He Abs in which one of the H chains was introduced with an alteration were assayed for their binding activities to each activating FcγR and inhibitory FcγR according to the method described in Example 4. […] The activating FcγRs in FIGS. 26, 27, 28, and 29 are FcγRIa, FcγRIIa (R), FcγRIIa (H), and FcγRIIIa, respectively.
Analysis of interaction between objective antibody and the FcγR was carried out using Biacore T100 (GE Healthcare). HBS-EP+ (GE Healthcare) was used as the running buffer, and the measurement temperature was set to 25° C. Chips produced by immobilizing the antigen peptide by the amine coupling method to a Series S Sencor Chip CM5 (GE Healthcare), or alternatively, chips produced by allowing preliminarily biotinylated antigen peptides to interact with and immobilize onto a Series S Sensor Chip SA (certified) (GE Healthcare) were used. Antibodies of interest were captured onto an antigen peptide-immobilized chip, and allowed to interact to each FcγR diluted with running buffer. To regenerate and repeatedly use the chip, the antibodies captured on the chip were washed off by reacting 10 mM glycine-HCl, pH 1.5.

He_2aH/2b (IIaH/IIb) [ratio] | Binder
0.68 | B1
0.26 | B2
0.69 | B3
0.54 | B4
0.34 | B5
0.68 | B6
0.47 | B7
0.7 | B8
0.63 | B9
0.49 | B10
0.8 | B11
0.27 | B12
0.18 | B13
0.58 | B14
0.55 | B15
0.55 | B16
0.79 | B17

Each binder was assayed against T2, FcγRIIb (assay: SPR (Biacore), relative binding vs GpH7-A5/GpH7-B3/GpL16-k0).

He/Con_2b | Binder
105 % of control He Ab (=100) | B1
192 % of control He Ab (=100) | B2
144 % of control He Ab (=100) | B3
230 % of control He Ab (=100) | B4
310 % of control He Ab (=100) | B5
167 % of control He Ab (=100) | B6
48 % of control He Ab (=100) | B7
116 % of control He Ab (=100) | B8
155 % of control He Ab (=100) | B9
243 % of control He Ab (=100) | B10
31.5 % of control He Ab (=100) | B11
109 % of control He Ab (=100) | B12
192 % of control He Ab (=100) | B13
120 % of control He Ab (=100) | B14
175 % of control He Ab (=100) | B15
239 % of control He Ab (=100) | B16
126 % of control He Ab (=100) | B17

The binders below were run against T1, FcγRIIa H in the same assay as above.

He/Con_2aH | Binder
71.3 % of control He Ab (=100) | B1
50.8 % of control He Ab (=100) | B2
99.2 % of control He Ab (=100) | B3
124 % of control He Ab (=100) | B4
105 % of control He Ab (=100) | B5
114 % of control He Ab (=100) | B6
22.7 % of control He Ab (=100) | B7
81.8 % of control He Ab (=100) | B8
97 % of control He Ab (=100) | B9
120 % of control He Ab (=100) | B10
25.1 % of control He Ab (=100) | B11
29 % of control He Ab (=100) | B12
34.7 % of control He Ab (=100) | B13
70.1 % of control He Ab (=100) | B14
97 % of control He Ab (=100) | B15
133 % of control He Ab (=100) | B16
98.8 % of control He Ab (=100) | B17

From patent US20180155451A1 (published 2018)
